Assays:
[1] = target: T1, PfCSP_(71–104) (N-CSP construct) (Plasmodium falciparum, UniProt P19597); assay: ELISA; PfCSP71–104 coated at 50 ng/well; mAb at 4.00, 1.00, 0.25 and 0.06 µg/ml; goat anti-human IgG-HRP; area under the curve; conditions: both partners purified
T1 construct: Plasmodium falciparum circumsporozoite protein residues 71–104, cloned into a pETM-22 vector; pETM-22 adds, as far as I recall, an N-terminal thioredoxin and His6 with a 3C protease site; source: E. coli BL21(DE3), purified (HisTrap, SEC)
T1 chain: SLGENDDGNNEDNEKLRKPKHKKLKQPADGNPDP

[2] = target: PfCSP on the surface of live Pf NF54 sporozoites (Plasmodium falciparum NF54 (endogenous in sporozoites)) (UniProt P19597); assay: flow cytometry on cells; imaging flow cytometry (ImageStreamX Mk II) of live (propidium iodide-negative) Pf midgut sporozoites isolated from oocysts; mAb 1 µg/ml, 30 min 4°C, Cy5 anti-human IgG1
[3] = target: PfCSP on the surface of live Pf NF54 sporozoites (Plasmodium falciparum NF54 (endogenous in sporozoites)) (UniProt P19597); assay: flow cytometry on cells; imaging flow cytometry (ImageStreamX Mk II) of live (propidium iodide-negative) Pf salivary gland sporozoites; mAb 1 µg/ml, 30 min 4°C, Cy5 anti-human IgG1
[4] = target: T1, PfCSP_(71–104) (N-CSP construct); assay: SEC; 5D5 Fab complexed with PfCSP71–104 at 1:1 molar ratio, with or without 100-fold molar excess of heparin sodium salt; Superdex 200 Increase 10/300 GL; peak fractions on non-reducing SDS-PAGE; conditions: both partners purified
PfCSP_(81–98) peptide = target: T2, PfCSP_(81–98) peptide (Plasmodium falciparum, UniProt P19597); assay: crystal structure; 5D5 Fab and PfCSP81–98 peptide mixed 1:5; 20% (wt/vol) PEG 3350, 0.2 M di-ammonium citrate; 1.85 Å; conditions: both partners purified
T2 construct: Plasmodium falciparum circumsporozoite protein residues 81–98; Only residues 81–92 are resolved in the crystal structure; also called N-CSP peptide; source: synthetic peptide, bought: GenScript
T2 chain: EDNEKLRKPKHKKLKQPA

Sequence of PfCSP on the surface of live Pf NF54 sporozoites (Plasmodium falciparum NF54 (endogenous in sporozoites)) (P19597 19-374): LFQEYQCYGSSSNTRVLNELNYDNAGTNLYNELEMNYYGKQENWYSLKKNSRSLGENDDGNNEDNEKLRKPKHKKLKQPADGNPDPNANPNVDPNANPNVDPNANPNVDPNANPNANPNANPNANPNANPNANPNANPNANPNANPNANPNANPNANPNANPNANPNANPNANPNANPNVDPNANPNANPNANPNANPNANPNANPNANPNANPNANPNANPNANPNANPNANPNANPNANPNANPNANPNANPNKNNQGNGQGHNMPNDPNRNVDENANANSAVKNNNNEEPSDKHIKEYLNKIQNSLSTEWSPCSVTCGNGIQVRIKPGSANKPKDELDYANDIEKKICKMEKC

B1: 5D5 IgG (5D5 variable regions on human Igγ1 and Igκ, for non-yeast display experiments) (antibody, V domains shown)
VH: QVHLQQSGGEVARPGASVKLSCKASGYTFTGYGLSWVKQRTGQGLEWIGEIYPRSGNTYYNEKFKGKATLTADKSSSTAYMELRSLTSEDSAVYFCARSWGNSSFVYWGQGTLVTVSA
VL: SIVMTQTPKFLLVSAGDRVTITCKASQSVTNDVTWYQQKPGQSPKLLIYYASNRYTGVPDRFTGSGYGTDFTFTISTVQAEDLAVYFCQQDYSSPFTFGSGTKLEIK
notes: as the heavy chain of m1 (5D5 VH + human Igγ1-CH1); two residues that replace the two stop codons of the Fab heavy chain vector; human immunoglobulin gamma-1 constant region, the part after the Fab heavy chain through the CH2 and CH3 domains; as the light chain of m1 (5D5 VL + human Igκ); Chimeric human IgG1; detected with anti-human IgG1 or anti-human IgG secondary antibodies; also called mAb …
For B1, the binding result [1] was “binds”, the mAb-bound sporozoites (pos1) of tot1 262, Exp 1 [2] was 67 sporozoites and the mAb-bound sporozoites (pos1) of tot1 728, Exp 2 [2] was 229 sporozoites. The mAb-bound sporozoites (pos1) of tot1 1,456, Exp 3 [2] was 366 sporozoites, the fold decrease in MFI of mAb-bound sporozoites against mAb 1210 [3] was 2 fold and the mAb-bound sporozoites (pos1) of tot1 487, Exp 2 [3] was 82 sporozoites. The mAb-bound sporozoites (pos1) of tot1 545, Exp 1 [3] was 176 sporozoites, the mAb-bound sporozoites (pos1) of tot1 1096, Exp 3 [3] was 316 sporozoites and the proportion of mAb-bound sporozoites [3] was 27%.

B2: 5D5 Fab expressed in HEK293F cells (complex glycan at H.Asn98) (Fab, V domains shown)
VH: QVHLQQSGGEVARPGASVKLSCKASGYTFTGYGLSWVKQRTGQGLEWIGEIYPRSGNTYYNEKFKGKATLTADKSSSTAYMELRSLTSEDSAVYFCARSWGNSSFVYWGQGTLVTVSA
VL: SIVMTQTPKFLLVSAGDRVTITCKASQSVTNDVTWYQQKPGQSPKLLIYYASNRYTGVPDRFTGSGYGTDFTFTISTVQAEDLAVYFCQQDYSSPFTFGSGTKLEIK
notes: murine mAb 5D5 VH cloned immediately upstream of human Igγ1-CH1; murine mAb 5D5 VL cloned immediately upstream of human Igκ; Chimeric Fab (mouse variable, human constant domains); The crystal structure used this glycoform; also called HEK293F–expressed 5D5 Fab; source: HEK293F, transient cotransfection, purified (KappaSelect, MonoS, SEC)
B2: binds [4]; binds (PfCSP_(81–98) peptide).
